T1: recombinant human IL-23 (human, UniProt Q9NPF7 20-189; P29460 23-328)
T1 construct: also called hIL-23
T1 sequence 1: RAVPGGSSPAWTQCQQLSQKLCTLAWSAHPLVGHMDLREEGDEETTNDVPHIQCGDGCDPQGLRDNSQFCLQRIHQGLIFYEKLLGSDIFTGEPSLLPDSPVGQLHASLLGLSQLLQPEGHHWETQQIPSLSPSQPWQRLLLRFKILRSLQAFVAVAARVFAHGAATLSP
T1 sequence 2: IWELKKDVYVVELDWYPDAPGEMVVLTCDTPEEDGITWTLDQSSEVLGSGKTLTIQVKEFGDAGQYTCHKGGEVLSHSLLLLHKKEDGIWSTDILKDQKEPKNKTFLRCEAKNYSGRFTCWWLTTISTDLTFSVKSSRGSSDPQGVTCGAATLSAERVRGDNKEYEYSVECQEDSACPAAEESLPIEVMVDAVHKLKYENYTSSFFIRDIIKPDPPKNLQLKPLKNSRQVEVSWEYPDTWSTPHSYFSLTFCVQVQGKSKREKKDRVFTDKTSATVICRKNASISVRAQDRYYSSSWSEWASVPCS

T2: Endogenous human IL-23 (human, UniProt Q9NPF7 20-189; P29460 23-328)
T2 construct: also called endogenous human IL-23 from stimulated dendritic cells
T2 sequence 1: T1 sequence 1
T2 sequence 2: T1 sequence 2

B1: A3M0 (antibody, human IgG1, kappa, V domains shown)
VH: QVQLVQSGAEVKKPGSSVKVSCKASGYTFTSYGITWVRQAPGQGLEWMGENYPRSGNTYYNEKFKGRVTITADKSTSTAYMELSSLRSEDTAVYYCARSEFISTVVAPYYYALDYWGQGTLVTVSS
VL: DIVMTQSPDSLAVSLGERATINCKASKKVTIFGSISALHWYQQKPGQPPKLIYNGAKLESGVPDRFSGSGSGTDFTLTISSLQAEDVAVYYCLQNKEVPYTFGGGTKVEIKR
notes: Full length chains; also called humanized mAb A3M0
B2: chimeric 8C92H6 HC1LC1 (antibody, V domains shown)
VH: QVQLQQSGAELARPGTSVKLSCKASGYTFTSYGITWVKQRTGQGLEWIGENYPRSGNTYYNEKFKGKATLTADKSSSTAYMELRSLTSEDSAVYFCARCEFISTVVAPYYYALDYWGQGTSLVTVS
VL: DIVLTQSPASLAVSLGQKATISCKASKKVTIFGSISALHWYQQKPGQPPKLIYNGAKLESGVSARFSDSGSQNRSPFGNQLSFTLTIDPVEADDAATYYCLQNKEVPYTFGGGTKLEIKR
notes: Murine variable regions with human constant regions; also called 8C92H6.HC1LC1 Chimera; 8C9 chimera

Tests used:
recombinant human IL-23 [1] = target: T1, recombinant human IL-23; test: SPR (Biacore T100), CHO supernatant antibody captured on Protein A or anti-human IgG, IL-23 analyte at 256, 64, 16, 4, 1 nM
recombinant human IL-23 [2] = target: T1, recombinant human IL-23; test: sandwich ELISA (optimised protocol, OD450): plate coated with anti-human IL-12, antibody pre-incubated with constant human IL-23, bound antibody detected with anti-human IgG gamma chain HRP; purified antibody
Description: Optimised assay conditions: Plates were coated with anti human IL12 at 2 μg/diluent (phosphate buffered saline). 50 μl/well of this mixture was incubated overnight at 4° C. The plates were then washed three times with Phosphate Buffered Saline with 0.05% Tween 20 (PBST). Plates were blocked with 4% skim milk powder (Fluka BioChemika #70166) PBS 200 μl/well for a minimum of 1 hour at room temperature. The plates were then washed three times with Phosphate Buffered Saline+0.05% Tween 20 (PBST). Various concentrations of antibody were incubated in a separate plate with a constant concentration of IL-23 for 1 hour at room temperature. 50 ul of each mixture were transferred to the assay plate and incubated at RT for 1 hr. They were then washed three times with Phosphate Buffered Saline+0.05% Tween 20 (PBST). […] 50 μl/well of the detection antibody was added and incubated at RT for 1 hour. The plates were then washed three times with Phosphate Buffered Saline+0.05% Tween 20 (PBST). 50 μl/well of TMB was added to the plates and incubated at RT for 10 min. 50 μl/well of 1 MH₂SO₄ was added. The plate was read at OD450 nm using the SOftmaxPRO versamax plate reader.

Endogenous human IL-23 = target: T2, Endogenous human IL-23; test: receptor inhibition ELISA in 25% human pooled AB serum: plate coated with recombinant human IL-23 receptor, endogenous human IL-23 at 5 ng/ml pre-incubated with titrated purified antibody, bound IL-23 detected with biotinylated anti-human IL-12
Description: Recombinant human IL-23 Receptor (R&D systems 1400-IR-050) was coated onto 96 well plates at a concentration of 1 μg/ml. Endogenous human IL-23 at 5 ng/ml final, was pre incubated with a titration of purified mAbs before being added to the pre-coated plates. Detection was performed with biotinylated anti-human IL12 (R&D systems BAF-219), followed by Streptavidin-HRP (GE Healthcare RPN 4401). This neutralisation ELISA used 25% human pooled AB type serum.

recombinant human IL-23 [3] = target: T1, recombinant human IL-23; test: IL-23/IL-23R inhibition ELISA (first protocol, OD490): plate coated with human IL23R Fc chimera, antibody pre-incubated with constant human IL-23, bound IL-23 detected with biotinylated anti-human IL-12; purified antibody
Description: Chimeric and humanized mAbs were assessed for their ability to neutralise human IL-23 binding to human IL-23 receptor, and cyno IL23 binding to human IL23 receptor. Plates were coated with human IL23R Fc chimera at 1 μg/diluent (bicarbonate buffer). 50 μl/well of this mixture was incubated overnight at 4° C. The plates were then washed twice with Tris Buffered Saline with 0.05% Tween 20 (TBST). Plates were blocked with 1% BSA TBST 100 μl/well for a minimum of 1 hour at room temperature. The plates were then washed twice with Tris Buffered Saline with 0.05% Tween 20 (TBST). Various concentrations of antibody were incubated in a separate plate with a constant concentration of IL-23 for 1 hour at room temperature. 50 ul of each mixture were transferred to the assay plate and incubated at RT for 1 hr. They were then washed twice with Tris Buffered Saline with 0.05% Tween 20 (TBST). Bound IL23 was detected by anti human 1L12 Biotin labelled Ab (R&D systems BAF219) diluted to 100 ng/ml in 1% BSA TBST. 50 μl/well of the biotinylated antibody was added and incubated at RT for 1 hour. The plates were then washed twice with Tris Buffered Saline with 0.05% Tween 20 (TBST). ExtrAvidin-Peroxidase (Sigma E2886) was diluted 1/1000 in 1% BSA TBST, 50 μl/well was added to the plates. […] The plate was read at OD490 nm using the SOftmaxPRO versamax plate reader.

Binder	Kd (recombinant human IL-23 [1]) [nM]	koff (recombinant human IL-23 [1]) [s⁻¹]	kon (recombinant human IL-23 [1]) [M⁻¹ s⁻¹]	EC50 (read off the curve) (recombinant human IL-23 [2]) [nM]	IC50 (read off the curve) (Endogenous human IL-23) [µg/mL]	IC50 (read off the curve) (recombinant human IL-23 [3]) [µg/mL]
B1	0.92	0.00028	300000	~0.03	~0.01	–
B2	–	–	–	~0.1	~0.02	~0.08

Reference: patent US20090123479A1 (published 2009)
